In US20220235136A1, “METHODS AND COMPOSITIONS FOR TREATING A DISEASE OR DISORDER” (YALE UNIVERSITY, priority 2019, published 2022):

Target: human IGF1R on transfected CHO cells (human), P08069
Assay: flow cytometry, IGFBP7-Ig on IGF1R transfected CHO cells (CHO-WT: 3.52)
Conditions: remark: other sources report otherwise

Chain of human IGF1R on transfected CHO cells (human), P08069 (P08069 31-1367): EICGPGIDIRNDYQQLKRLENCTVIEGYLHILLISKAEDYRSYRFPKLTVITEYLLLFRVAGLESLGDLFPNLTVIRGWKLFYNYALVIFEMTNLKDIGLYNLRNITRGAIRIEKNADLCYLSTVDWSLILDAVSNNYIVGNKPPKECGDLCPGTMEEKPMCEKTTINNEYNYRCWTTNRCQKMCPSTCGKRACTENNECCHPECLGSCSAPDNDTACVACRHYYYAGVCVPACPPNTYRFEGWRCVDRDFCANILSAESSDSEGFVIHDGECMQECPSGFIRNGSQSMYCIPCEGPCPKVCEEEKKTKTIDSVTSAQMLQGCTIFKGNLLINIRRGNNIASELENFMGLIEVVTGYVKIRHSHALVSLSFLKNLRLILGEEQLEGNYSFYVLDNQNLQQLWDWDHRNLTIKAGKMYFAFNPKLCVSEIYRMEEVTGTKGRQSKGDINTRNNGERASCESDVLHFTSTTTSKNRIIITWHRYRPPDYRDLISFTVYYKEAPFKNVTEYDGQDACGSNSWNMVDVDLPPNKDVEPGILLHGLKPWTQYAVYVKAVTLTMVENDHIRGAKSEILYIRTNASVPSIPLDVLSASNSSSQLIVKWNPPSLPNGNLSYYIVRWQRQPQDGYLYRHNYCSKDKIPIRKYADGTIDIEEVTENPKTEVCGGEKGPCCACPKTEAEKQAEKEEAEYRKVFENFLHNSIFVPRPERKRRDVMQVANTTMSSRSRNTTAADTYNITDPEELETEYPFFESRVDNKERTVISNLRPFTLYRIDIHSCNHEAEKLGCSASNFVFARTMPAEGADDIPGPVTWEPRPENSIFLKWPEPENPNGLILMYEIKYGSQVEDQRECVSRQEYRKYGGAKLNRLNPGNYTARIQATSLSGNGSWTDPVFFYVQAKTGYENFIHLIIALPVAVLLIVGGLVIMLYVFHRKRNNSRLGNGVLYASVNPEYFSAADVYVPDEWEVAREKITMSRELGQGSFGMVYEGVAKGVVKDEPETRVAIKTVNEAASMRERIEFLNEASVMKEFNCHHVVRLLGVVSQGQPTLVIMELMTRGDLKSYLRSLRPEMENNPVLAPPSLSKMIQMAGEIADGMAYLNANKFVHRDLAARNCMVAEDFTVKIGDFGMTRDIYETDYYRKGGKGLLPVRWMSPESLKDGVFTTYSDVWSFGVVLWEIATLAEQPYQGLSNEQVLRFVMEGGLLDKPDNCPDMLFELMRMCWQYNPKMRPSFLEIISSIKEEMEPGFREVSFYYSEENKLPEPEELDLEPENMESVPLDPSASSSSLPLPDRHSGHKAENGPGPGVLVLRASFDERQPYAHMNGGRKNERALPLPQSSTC

number printed above the gate of the dot plot (share of cells in the gate; unit not given): 2.04
B1: Human IGFBP7 (Fc-tag), Sino Biological, Q16270 27-282 (Fc fusion, not shown: a dimerising Fc or GST)
chain: SSSDTCGPCEPASCPPLPPLGCLLGETRDACGCCPMCARGEGEPCGGGGAGRGYCAPGMECVKSRKRRKGKAGAAAGGPGVSGVCVCKSRYPVCGSDGTTYPSGCQLRAASQRAESRGEKAITQVSKGTCEQGPSIVTPPKDIWNVTGAQVYLSCEVIGIPTPVLIWNKVKRGHYGVQRTELLPGDRDNLAIQTRGGPEKHEVTGWVLVSPLSKEDAGEYECHASNSQGQASASAKITVVDALHEIPVKKGEGAEL
